These results are taken from publication PMC10082157.

Experiment [1] deals with human CD19 (human (endogenous in Raji)) (UniProt P15391).
Experiment [2] concerns the target TCR–CD3 complex on T cells (human (endogenous in Jurkat and primary T cells)) (UniProt P07766).

TCR–CD3 complex on T cells (human (endogenous in Jurkat and primary T cells)), sequence (P07766 whole entry, looked up, one chain of several): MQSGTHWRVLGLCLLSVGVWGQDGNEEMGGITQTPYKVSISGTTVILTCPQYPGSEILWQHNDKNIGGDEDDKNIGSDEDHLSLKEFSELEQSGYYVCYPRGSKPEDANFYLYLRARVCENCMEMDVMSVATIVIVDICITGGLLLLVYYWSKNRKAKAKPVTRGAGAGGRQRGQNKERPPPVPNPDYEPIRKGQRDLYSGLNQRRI
human CD19 (human (endogenous in Raji)), sequence (P15391 20-556): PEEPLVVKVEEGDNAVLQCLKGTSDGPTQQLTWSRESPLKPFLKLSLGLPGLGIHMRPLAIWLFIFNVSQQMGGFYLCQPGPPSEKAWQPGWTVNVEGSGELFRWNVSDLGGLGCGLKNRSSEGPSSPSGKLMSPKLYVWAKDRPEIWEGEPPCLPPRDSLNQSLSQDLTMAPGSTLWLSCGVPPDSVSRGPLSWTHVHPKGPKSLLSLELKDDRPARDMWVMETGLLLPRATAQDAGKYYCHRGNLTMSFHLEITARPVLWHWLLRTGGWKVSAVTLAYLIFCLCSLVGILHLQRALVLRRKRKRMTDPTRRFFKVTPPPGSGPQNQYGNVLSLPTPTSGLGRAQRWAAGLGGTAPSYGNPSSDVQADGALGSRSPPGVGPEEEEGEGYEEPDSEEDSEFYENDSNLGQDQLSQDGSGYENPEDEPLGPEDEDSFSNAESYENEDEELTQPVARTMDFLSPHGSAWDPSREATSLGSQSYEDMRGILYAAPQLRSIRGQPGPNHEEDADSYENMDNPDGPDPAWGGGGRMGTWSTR

For the substance “Blinatumomab (CD19xCD3 BiTE) (bispecific antibody)”, the activation of Jurkat-ZsG NFAT reporter cells (ZsGreen) in droplets with CD19+ Raji cells and 100 ng/ml Blinatumomab; percent activated in experiment [1] and in experiment [2] was 40% throughout.
